Experimental findings from patent US20220195067A1 (LAMKAP BIO BETA, published 2022) are described below.

Assay [1] has as its target T1, his-tagged recombinant huCEACAM3 (R&D Systems, #9868-CM) (human, UniProt P40198 35-155).
T1 construct: Bought reagent; also called rec. hCEACAM3; recombinant soluble human CEACAM3; not shown: His tag
T1 sequence (looked up): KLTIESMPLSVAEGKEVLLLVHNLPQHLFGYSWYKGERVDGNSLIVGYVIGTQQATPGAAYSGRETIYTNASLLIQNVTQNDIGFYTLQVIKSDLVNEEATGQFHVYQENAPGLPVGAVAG
Put plainly: BLI (Octet), his-tagged CEACAM3 on HIS1K biosensor, antibody as analyte. On the procedure:
The affinity of the anti-human CEACAM5 arms of the CD47×CEACAM5 bispecific antibodies of the invention for recombinant soluble human CEACAM3 was determined using the Bio-Layer Interferometry (BLI) technology and an OctetRED96 instrument. HIS1K biosensors (Sartorius), loaded with an anti-His tag antibody, were used to capture his-tagged recombinant huCEACAM3 (R&D Systems, #9868-CM). The measurement was performed at 30° C. After hydration, pre-conditioning and a baseline step in Kinetic buffer (PBS, 0.002% Tween 20, 0.01% BSA, Kathon; Sartorius), biosensors were loaded for 5 min with the recombinant huCEACAM3 at 5 μg/mL in Kinetic buffer. Then, biosensors were dipped into a serial dilution of k bodies, starting at 667 nM with a 2× dilution factor. The association and dissociation phases were monitored for 60 seconds and 120 seconds respectively. Biosensors were regenerated using 10 mM glycine pH 1.7. A standard acquisition rate was applied (5.0 Hz, averaging by 20). Curves were processed with a double reference subtraction, a Y alignment on the baseline and an interstep correction. The affinity was measured applying a 1:1 global fitting model on the full association step and the first 5 seconds of the dissociation step.

Assay [2] has as its target T2, recombinant human CEACAM5 Extra Cellular Domain (ECD) soluble protein (human, UniProt P06731 35-685, biotinylated in the competition ELISA of Example 4).
T2 construct: extracellular domain; also called rec. hCEACAM5; recombinant soluble human CEACAM5; not shown: C-terminal Avitag and hexa-histidine tag, or a human Fc or a mouse Fc region; which construct stood in each assay is not
T2 sequence (looked up): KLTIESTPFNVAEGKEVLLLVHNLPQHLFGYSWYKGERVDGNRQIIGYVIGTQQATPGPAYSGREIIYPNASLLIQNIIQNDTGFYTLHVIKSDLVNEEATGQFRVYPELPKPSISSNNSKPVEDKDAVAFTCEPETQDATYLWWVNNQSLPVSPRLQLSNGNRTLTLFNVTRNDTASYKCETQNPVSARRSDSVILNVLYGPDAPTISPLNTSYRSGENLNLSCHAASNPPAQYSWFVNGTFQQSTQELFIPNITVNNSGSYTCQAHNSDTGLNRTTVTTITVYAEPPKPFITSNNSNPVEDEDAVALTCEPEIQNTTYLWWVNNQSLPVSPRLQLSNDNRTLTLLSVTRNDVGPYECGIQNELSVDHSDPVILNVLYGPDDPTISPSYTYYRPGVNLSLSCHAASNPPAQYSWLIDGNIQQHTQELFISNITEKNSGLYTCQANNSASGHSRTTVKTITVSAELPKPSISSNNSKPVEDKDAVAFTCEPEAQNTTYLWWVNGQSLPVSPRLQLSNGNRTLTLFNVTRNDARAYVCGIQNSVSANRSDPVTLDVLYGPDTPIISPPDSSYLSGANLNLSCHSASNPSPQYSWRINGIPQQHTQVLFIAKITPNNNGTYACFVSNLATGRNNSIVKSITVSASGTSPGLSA
Kind of assay: BLI (Octet), antibody on Protein A biosensor, soluble CEACAM5 ECD as analyte. Here is the method:
The affinity of the anti-human CEACAM5 arm of the CD47×CEACAM5 bispecific antibodies of the invention for recombinant soluble human CEACAM5 was determined using the Bio-Layer Interferometry (BLI) technology. An OctetRED96 instrument and Protein A biosensors were used (Sartorius). The measurement was performed at 30° C. After hydration, pre-conditioning and a baseline step in Kinetic buffer (PBS, 0.002% Tween 20, 0.01% BSA, Kathon; Sartorius), biosensors were loaded for 5 min with the κλ body at 0.5 μg/mL in Kinetic buffer. Then, biosensors were dipped into a serial dilution of recombinant human CEACAM5 Extra Cellular Domain (ECD) soluble protein (produced in house), starting at 50 nM with a 2× dilution factor. The association and dissociation phases were monitored for 600 seconds each. Biosensors were regenerated using 10 mM glycine pH 1.7. A standard acquisition rate was applied (5.0 Hz, averaging by 20). Curves were processed with a reference well subtraction, a Y alignment on the baseline, without interstep correction. The affinity was measured applying a 1:1 global fitting model on the full association and dissociation steps. The binding affinity (KD) of the bispecific antibodies of the invention to recombinant human CD47 was determined by the same experimental procedure.

The target in assay [3] is T3, human CEACAM5 on CEACAM5-expressing cancer cell lines (human, UniProt P06731 35-685).
T3 construct: whole, on cells; also called CEACAM5 on SK-CO-1, MKN-45, HPAF-II, SNU-C1, Ls174T, LoVo cells
T3 sequence (looked up): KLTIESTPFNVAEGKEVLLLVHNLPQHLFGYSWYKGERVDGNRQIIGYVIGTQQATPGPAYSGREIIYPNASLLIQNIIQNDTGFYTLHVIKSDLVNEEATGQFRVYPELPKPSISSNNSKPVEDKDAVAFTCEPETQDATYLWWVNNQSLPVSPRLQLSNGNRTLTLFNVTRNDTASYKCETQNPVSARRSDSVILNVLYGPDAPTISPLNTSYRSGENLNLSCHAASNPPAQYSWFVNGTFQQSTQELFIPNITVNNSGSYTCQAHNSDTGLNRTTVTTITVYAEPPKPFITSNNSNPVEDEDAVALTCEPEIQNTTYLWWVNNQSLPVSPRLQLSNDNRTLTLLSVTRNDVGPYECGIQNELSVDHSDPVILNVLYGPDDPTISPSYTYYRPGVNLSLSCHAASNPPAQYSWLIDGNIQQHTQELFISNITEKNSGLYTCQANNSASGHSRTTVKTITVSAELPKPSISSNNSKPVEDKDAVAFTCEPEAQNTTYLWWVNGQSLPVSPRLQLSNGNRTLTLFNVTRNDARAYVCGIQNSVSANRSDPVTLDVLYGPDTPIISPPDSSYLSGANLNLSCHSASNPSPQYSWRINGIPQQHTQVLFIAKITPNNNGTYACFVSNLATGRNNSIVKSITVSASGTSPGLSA
Put plainly: flow cytometry on Ls174T cells (carry CEACAM5 and CD47), PE anti-human IgG Fc. Here is the method: The binding of CD47×CEACAM5 bispecific antibodies was tested on CEACAM5-expressing human gastric adenocarcinoma cells (e.g. MKN-45), on CEACAM5-expressing human colorectal cancer cells (SK-CO-1, SNU-C1, Ls174T, and LoVo), and on CEACAM5-expressing pancreatic adenocarcinoma cells (HPAF-II).
Cells were harvested, counted, checked for viability and resuspended at 3×10⁶ cells/ml in FACS buffer (PBS 2% BSA, 0.1% NaN3). 100 μl of the cell suspension was distributed in V-bottom 96-well plates (3×10⁵ cells/well). The supernatant was removed by centrifugation 3 minutes at 4° C., 1300 rpm. Increasing concentrations of the antibody according to the invention were then added into the wells and incubated for 15 minutes at 4° C. Cells were washed twice with cold FACS buffer and re-incubated for further 15 minutes at 4° C. with the PE (R-phycoerythrin)-conjugated mouse anti-human IgG Fc secondary antibody (SouthernBiotech, pre-diluted 1:100 in FACS buffer). Cells were washed twice with cold FACS buffer and resuspended in 300 μl FACS buffer with 1:15000-diluted SytoxBlue (Life Technologies). Fluorescence, specifically mean fluorescence […] (MFI), was determined using a Cytoflex […] flow cytometer. Binding curves and […] and Emax values were obtained and calculated using GraphPad Prism7 software.

B1: K2AC84 (bispecific antibody, human IgG1, kappa, lambda)
heavy: not shown
light 1: QSVLTQPPSVSAAPGQKVTISCSGSSSNIGIGLVSWYQQLPGTAPKLLIYNVNTRPSGIPDRFSGSKSGTSATLGITGLQTGDEADYYCGTWDFSYRVDFGGGTKLTVLGQPKAAPSVTLFPPSSEELQANKATLVCLISDFYPGAVTVAWKADSSPVKAGVETTTPSKQSNNKYAASSYLSLTPEQWKSHRSYSCQVTHEGSTVEKTVAPTECS
light 2: not shown
notes: Kappa-lambda body; also called CD47xCEACAM5 bispecific antibody K2AC84; AC84 (CEACAM5 arm)
As for B1, the Kd in assay [1] was determined as 360 nM. Also, the Kd in assay [2] stood at 2.63 nM. Besides, in assay [3], the EC50 turned out to be 5.6 nM and the “Emax (MFI)” value turned out to be 89000 MFI.

B2: K2AC100 (bispecific antibody, human IgG1, kappa, lambda)
heavy: not shown
light 1: QSVLTQPPSVSAAPGQKVTISCSGSSSNIGYGLVSWYQQLPGTAPKLLIYNGNIRPSGIPDRFSGSKSGTSATLGITGLQTGDEADYYCGTWDFSYRVDFGGGTKLTVLGQPKAAPSVTLFPPSSEELQANKATLVCLISDFYPGAVTVAWKADSSPVKAGVETTTPSKQSNNKYAASSYLSLTPEQWKSHRSYSCQVTHEGSTVEKTVAPTECS
light 2: not shown
notes: Kappa-lambda body; also called CD47xCEACAM5 bispecific antibody K2AC100; AC100 (CEACAM5 arm)
For B2, the Kd in assay [1] stood at 700 nM. Moreover, in assay [2], the Kd came out at 4.8 nM. In addition, in assay [3], the EC50 is 4.5 nM and the “Emax (MFI)” value is 70000 MFI.

B3: K2AC22 (bispecific antibody, human IgG1, kappa, lambda)
heavy: not shown
light 1: QSVLTQPPSVSAAPGQKVTISCSGSSSNIANGIVSWYQQLPGTAPKLLIYFDNLRPSGIPDRFSGSKSGTSATLGITGLQTGDEADYYCGTWDFSYGIVFGGGTKLTVLGQPKAAPSVTLFPPSSEELQANKATLVCLISDFYPGAVTVAWKADSSPVKAGVETTTPSKQSNNKYAASSYLSLTPEQWKSHRSYSCQVTHEGSTVEKTVAPTECS
light 2: not shown
notes: Kappa-lambda body, human IgG1, one arm for CEACAM5 and one for CD47; comparison antibody from WO2019234576; also called state of the art bispecific CEAxCD47 antibody K2AC22; CD47xCEACAM5 bispecific antibody K2AC22
As for B3, the Kd in assay [1] amounted to 10000 nM. Further, the Kd in assay [2] is 120 nM. Moreover, in assay [3], a half-maximal effect (EC50) was put at 28 nM and the “Emax (MFI)” value came to 73000 MFI.
